Key:
[1] = molecular target: amylospheroid 42 (Homo sapiens (Human)) (UniProt P05067); test: SPR, ratio of Kd values (42 fibril against 42ASPD)
[2] = molecular target: monomeric amyloid β40-protein (Aβ1-40); test: SPR (BIAcore), antigen on CM5 chip, antibody in solution
[3] = molecular target: amylospheroid 42 (Homo sapiens (Human)) (UniProt P05067); test: as above
[4] = molecular target: Aβ fibril (42 fibril) prepared from 42Aβ (Homo sapiens (Human)) (UniProt P05067); test: as above
[5] = molecular target: amylospheroid 42 (Homo sapiens (Human)) (UniProt P05067); test: SPR, ratio of Kd values (40Aβ against 42ASPD)
[6] = molecular target: ASPD (amylospheroid; Aβ species not stated); test: competitive ELISA: antibody pre-reacted with ASPD in solution, then ASPD solid-phase plate
[7] = molecular target: monomeric amyloid β40-protein (Aβ1-40); test: SPR (BIAcore 3000), antigen on CM5 chip, antibody in solution
[8] = molecular target: amylospheroid 42 (Homo sapiens (Human)) (UniProt P05067); test: as above
[9] = molecular target: monomeric amyloid β42-protein (Aβ1-42); test: as above
Chain of monomeric amyloid β42-protein (Aβ1-42) (peptide, as listed by the source): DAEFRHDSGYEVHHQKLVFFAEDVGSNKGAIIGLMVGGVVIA

[10] = molecular target: Aβ fibril prepared from amyloid β40 (Homo sapiens (Human)) (UniProt P05067); test: as above
[11] = molecular target: commercially available amyloid precursor protein sAPPα (Sigma) (UniProt P05067); test: competitive ELISA: antibody pre-reacted with sAPPα in solution, then ASPD solid-phase plate

Chain of monomeric amyloid β40-protein (Aβ1-40) (peptide, as listed by the source): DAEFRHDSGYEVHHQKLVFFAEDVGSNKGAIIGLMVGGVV

| fold higher affinity with ASPD than with amyloid fibril [1] | Kd [2] | Kd [3] | Kd [4] | fold higher affinity with ASPD than with amyloid β-monomer [5] | IC50 [6] | Kd [7] | Kd [8] | Kd [9] | Kd [10] | IC50 [11] | Substance |
| --- | --- | --- | --- | --- | --- | --- | --- | --- | --- | --- | --- |
| 2 times | 3.93 nM | 0.115 nM | 0.231 nM | 34 times |  |  |  |  |  |  | anti-Aβ antibody 3D6 (US 20030165496 A1), produced as a mouse IgG2b/κ molecule |
|  |  |  |  |  | 3.7 nM | 37.3 nM | 18.3 nM | 17.2 nM | 1.33 nM | 16.1 nM | commercially available anti-amyloid β antibody 6E10 (Senetek) |

Source: US20100297662A1
